The record followed here is patent US8710017B2, “Human and mouse targeting peptides identified by phage display” (priority 2000, dated 2014).

Bridge positions count the residues as written; N and C are the ends. Ends that are not written are not given here.

For assay [1], the target named is T1, β5 integrin cytoplasmic domain (Homo sapiens, UniProt P18084).
T1 construct: the screenings involving the β5 cytoplasmic domain fusion protein
T1 sequence (P18084 743-799 limits assumed): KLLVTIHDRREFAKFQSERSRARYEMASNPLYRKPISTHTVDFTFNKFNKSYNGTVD
Put plainly: Phage binding to immobilized GST-β5cyto. Particulars: for β5/GST Ratio: colonies from β5-GST wells divided by GST. As to the method: FIG. 10. Binding of β5 cytoplasmic domain-selected phage to immobilized proteins. GST fusion proteins or GST alone were coated on microtiter wells at 10 μg/ml and used to bind phage expressing endostatin binding peptides. […] The data represent the mean colony counts from triplicate wells, with standard error less than 10% of the mean.
β3 and β5 cytoplasmic domain-binding peptides were isolated by screening multiple phage libraries with recombinant GST fusion proteins that contained either GST-β3cyto or GST-β5cyto coated onto microtiter wells. Immobilized GST was used as a negative control for enrichment during the panning of each cytoplasmic domain. Phage were sequenced from randomly selected clones after three rounds of panning as disclosed elsewhere (Koivunen et al., 1995; Pasqualini et al., 1995). Distinct sequences were isolated that interacted specifically with the β3 or with the β5 cytoplasmic domains (Table 9). Randomly selected clones from panning rounds II and III were sequenced. Amino acid sequences of the phagemid encoded peptides were deduced from nucleotide sequences. The ratios were calculated by dividing the number of colonies recovered from β3-GST-coated wells and those recovered from GST or BSA.
A similar strategy was used to determine the specificity of the phage isolated in the screenings involving the β5 cytoplasmic domain fusion protein.
To determine whether the binding of the selected motifs was specific for each cytoplasmic domain, binding assays were performed comparing the interaction of individual phage motifs with β1, β3, or β5 cytoplasmic domain fusion proteins. […] Both the β3- and β5-selected phage selectively interacted with the proteins on which they were originally selected, with average binding selectivities observed of β3/β1=3.9, β3/β5=3.7, β5/β1=4.8, and β5/β3=6.9 (not shown). The average selectivity for integrin cytoplasmic domains versus BSA was about one to two orders of magnitude (not shown). None of the phage tested seemed to bind strongly to the β1 cytoplasmic domain (not shown).

In assay [2] the test system is MDA-MB-435-derived tumor xenografts. Put plainly: In vivo tumor homing of APA-binding phage. Details: species or system mouse. Particulars: 10^9 TU iv, 5 min circulation, FIG. 22. As to the method: MDA-MB-435-derived tumor xenografts were established in female nude mice 2 months old (Jackson Labs, Bar Harbor, Me.). Mice were anesthetized with Avertin and injected intravenously through the tail vein with 10^9 TU of the phage in a 200 μl volume of DMEM. The phage were allowed to circulate for 5 min, and the animals were perfused through the heart with 5 ml of DMEM. The tumor and brain were dissected from each mouse, weighed, and equal amounts of tissue were homogenized. The tissue homogenates were washed three times with ice-cold DMEM containing a proteinase inhibitor cocktail and 0.1% BSA. Bound phage were rescued and counted as described for cell panning. Fd-tet phage was injected at the same input as a control. The experiment was repeated twice. In parallel, part of the same tissue samples were fixed in Bouin solution, and imbedded in paraffin for preparation of tissue sections. An antibody to M-13 phage (Amersham-Pharmacia) was used for the staining.

The target in assay [3] is T2, APA (SK-RC-49/APA cells) (Homo sapiens, UniProt Q07075).
T2 construct: The renal carcinoma cell line SK-RC-49 was transfected with an expression vector encoding full-length APA cDNA; expressed in transfected cells; host or cells: SK-RC-49 renal carcinoma cells, stably transfected (G418)
T2 sequence (Q07075 whole entry): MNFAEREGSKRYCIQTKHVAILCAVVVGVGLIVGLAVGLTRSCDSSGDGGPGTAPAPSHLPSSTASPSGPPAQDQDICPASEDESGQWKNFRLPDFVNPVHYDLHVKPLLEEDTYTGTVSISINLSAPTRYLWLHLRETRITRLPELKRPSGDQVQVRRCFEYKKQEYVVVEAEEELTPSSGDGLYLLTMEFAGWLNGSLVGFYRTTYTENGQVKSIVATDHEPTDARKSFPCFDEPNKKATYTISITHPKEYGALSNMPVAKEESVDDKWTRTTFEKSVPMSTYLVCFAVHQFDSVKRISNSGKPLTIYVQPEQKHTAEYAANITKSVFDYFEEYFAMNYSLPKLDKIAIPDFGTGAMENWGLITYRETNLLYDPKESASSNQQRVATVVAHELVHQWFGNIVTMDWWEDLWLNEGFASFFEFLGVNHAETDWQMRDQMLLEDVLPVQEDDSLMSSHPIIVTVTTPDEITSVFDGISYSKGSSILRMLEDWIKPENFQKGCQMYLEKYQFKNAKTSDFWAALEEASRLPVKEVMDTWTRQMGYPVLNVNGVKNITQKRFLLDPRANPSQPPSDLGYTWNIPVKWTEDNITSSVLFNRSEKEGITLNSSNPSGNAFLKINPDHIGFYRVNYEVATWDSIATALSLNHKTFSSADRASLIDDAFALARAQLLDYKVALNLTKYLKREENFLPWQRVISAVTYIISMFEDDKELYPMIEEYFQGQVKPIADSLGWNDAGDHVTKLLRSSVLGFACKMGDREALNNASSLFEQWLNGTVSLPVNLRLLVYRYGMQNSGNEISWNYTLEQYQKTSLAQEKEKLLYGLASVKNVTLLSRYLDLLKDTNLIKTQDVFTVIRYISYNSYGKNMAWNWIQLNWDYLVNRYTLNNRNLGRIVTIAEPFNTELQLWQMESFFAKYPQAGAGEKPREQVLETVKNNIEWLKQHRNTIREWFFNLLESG
Put plainly: Cell panning of CX3CX3CX3C phage library on SK-RC-49/APA cells (insert frequency). The note with it: for Round 2 (%): share of 18 randomly selected phage inserts. The assay is classed as cell-based. As to the method:
A CX3CX3CX3C(C, cysteine; X, any amino acid) library was prepared (Rajotte et al., 1998). […] Cells were detached by incubation with 2.5 mM EDTA in PBS, washed once in binding medium (DMEM high glucose supplemented with 20 mM HEPES and 2% FCS), and resuspended in the same medium at a concentration of 2×10^6 cells/ml. 10^10 TU of phage were added to 500 μl of the cell suspension, and the mixture was incubated overnight (first round) or for 2 h (successive rounds) at 4° C. with gentle rotation. Cells were washed five times in binding medium at room temperature and resuspended in 100 μl of the same medium. Phage were rescued by adding 1 ml of exponentially growing K91Kan Escherichia coli bacteria and incubating the mixture for 1 h at room temperature. Bacteria were diluted in 10 ml of LB medium supplemented with 0.2 μg/ml tetracycline and incubated for another 20 min at room temperature. Serial dilutions were plated on LB plates containing 40 μg/ml tetracycline, and plates were incubated at 37° C. overnight before colonies were counted.
The CX3CX3CX3C phage library (10^10 transducing units [TU]) was preadsorbed on parental SK-RC-49 cells to decrease nonspecific binding. […] SK-RC-49/APA-bound phage were amplified and used for two consecutive rounds of selection.

Assay [4] concerns the target T2, APA (SK-RC-49/APA cells). Put plainly: Phage binding specificity assay on SK-RC-49/APA cells. Format: cell-based. Particulars: for displacement of phage binding by CPRECESIC peptide: data not shown. As to the method:
The cell binding assay was performed with an input of 10^9 TU as described for the cell panning. The specificity was confirmed by adding […] (SEQ ID NO:123) peptide to the binding medium in increasing concentrations. For phage binding on immunocaptured APA, wells were blocked for 1 h at room temperature with PBS/3% BSA and incubated with 10^9 TU for 1 h at room temperature in 50 μl PBS/3% BSA. After eight washes in PBS/1% BSA/0.01% Tween-20 and two washes in PBS, phage were rescued by adding 200 μl of exponentially growing K91Kan E. coli. Each experiment was repeated at least three times.

Assay [5] relates to HUVECs. Put plainly: HUVEC chemotaxis assay (Boyden chamber, VEGF-A). The assay is classed as cell-based, human. Particulars: 1 mM, VEGF-A 10 ng/ml, 5 h, FIG. 24. As to the method:
FIG. 24. […] (SEQ ID NO:123) inhibits HUVEC migration. HUVECs were stimulated with VEGF-A (10 ng/ml). The assay was performed in a Boyden microchemotaxis chamber, and cells were allowed to migrate through an 8-μm pore filter for 5 h at 37° C. […] (SEQ ID NO:124) (control) and […] (SEQ ID NO:123) peptides were tested at 1 mM concentration. Migrated cells were stained and five high-power fields (magnitude 100×) for each microwell were counted. Error bars are the standard error of the means of triplicate microwells.
A cell migration assay was performed in a 48-well microchemotaxis chamber (NeuroProbe, Gaithersburg, Md.) according to Bussolini et al. (1995). Polyvinylpyrrolidone-free polycarbonate filters (Nucleopore, Cambridge, Mass.) with 8-μm pores were coated with 1% gelatin for 10 min at room temperature and equilibrated in M199 medium supplemented with 2% FCS. […] (SEQ ID NO:123) or control […] (SEQ ID NO:124) peptide (1 mM) was placed in the lower compartment of a Boyden chamber in M199 medium supplemented with 2% FCS and 10 ng/ml VEGF-A (R&D System). Subconfluent cultures that had been starved overnight were harvested in PBS containing 2.5 mM EDTA, washed once in PBS, and resuspended in M199 medium containing 2% FCS at a final concentration of 2×10^6 cells/ml. After the filter was placed between the lower and upper chambers, 50 μl of the cell suspension was seeded in the upper compartment, and cells were allowed to migrate for 5 h at 37° C. in a humidified atmosphere with 5% CO2. The filter was then removed, and cells on the upper side were scraped with a rubber policeman. Migrated cells were fixed in methanol and stained with Giemsa solution (Diff-Quick, Baxter Diagnostics, Rome, Italy). Five random high-power fields (magnitude 100×) were counted in each well. Each assay was run in triplicate.

The test system of assay [6] is HUVECs. In words: Three-dimensional Matrigel culture of HUVECs (capillary-like network). The note with it: 1 mM, 24 h, not shown. Format: cell-based, human. As to the method: Matrigel (Collaborative Research, Bedford, Mass.) was added at 100 μl per well to 48-well tissue culture plates and allowed to solidify for 10 min at 37° C. HUVECs were starved for 24 h in M199 medium supplemented with 2% FCS before being harvested in PBS containing 2.5 mM EDTA. 10^4 cells were gently added to each of the triplicate wells and allowed to adhere to the gel coating for 30 min at 37° C. Then, medium was replaced with indicated concentrations of […] (SEQ ID NO:123) or […] (SEQ ID NO:124) peptides in complete medium. The plates were photographed after 24 h with an inverted microscope (Canon). The assay was repeated three times.

Assay [7] deals with HUVECs. Put plainly: HUVEC cell growth assay (crystal violet, VEGF-A). The note with it: 1 mM, VEGF-A 10 ng/ml, FIG. 25. The assay is classed as cell-based, human. As to the method:
FIG. 25. […] (SEQ ID NO:123) inhibits HUVEC proliferation. Cells were stimulated with VEGF-A (10 ng/ml), and growth was evaluated at the indicated times by a colorimetric assay based on crystal violet staining. Error bars are the standard error of the means of triplicate wells. Each experiment was repeated at least twice with similar results.
HUVECs were seeded in 48-well plates (10^4 cells/well) and allowed to attach for 24 h in complete M199 medium. The cells were then starved in M199 medium containing 2% FCS for 24 h. […] (SEQ ID NO:123) or control […] (SEQ ID NO:124) peptide (1 mM) was added to the wells in medium containing 2% FCS and 10 ng/ml VEGF-A (R&D System, Abingdom, UK). After incubation for the indicated times, cells were fixed in 2.5% glutaraldehyde, stained with 0.1% crystal violet in 20% methanol, and solubilized in 10% acetic acid. All treatments were done in triplicate. Cell growth was evaluated by measuring the O.D. at 590 nm in a microplate reader (Biorad, Hercules, Calif.). A calibration curve was established and a linear correlation between O.D. and cell counts was observed between 10^3 and 10^5 cells.

Assay [8] relates to chicken chorioallantoic membrane (CAM). In words: CAM assay for angiogenesis. The assay is classed as in vivo. Particulars: control peptide, 1 mM, not shown. As to the method:
In vivo angiogenesis was evaluated by a CAM assay (Ribatti et al., 1994). Fertilized eggs from White Leghorn chickens were maintained in constant humidity at 37° C. On the third day of incubation, a square window was opened in the eggshell and 2-3 ml of albumen was removed to detach the developing CAM from the shell. The window was sealed with a glass plate of the same size and the eggs were returned to the incubator. At day 8, 1 mm^3 sterilized gelatin sponges (Gelfoam, Upjohn Co, Kalamazoo, Milan) were adsorbed with VEGF-A (20 ng, R&D System) and either […] (SEQ ID NO:123) or control […] (SEQ ID NO:124) peptide (1 mM) in 3 μl PBS and implanted on the top of the growing CAMs under sterile conditions. CAMs were examined daily until day 12 and photographed in ovo with a Leica stereomicroscope. Capillaries emerging from the sponge were counted. The assay was repeated twice.

As to DWFSYYEL, in assay [1] (colonies from β5-GST wells divided by BSA), the “β5/BSA Ratio” value is recorded as 153. In addition, the “β5/GST Ratio” value in assay [1] is 1.7.
On to CYNLCIRECESICGADGACWTWCADGCSRSC, for which, in assay [2], the “enrichment in tumor xenografts compared to brain tissue” value (from here on “enrichment … compared to brain tissue”) was “Neither CYNLCIRECESICGADGACWTWCADGCSRSC (SEQ ID NO:125) nor CLGQCASICVNDC (SEQ ID NO:126) phage showed any tumor-homing preference”. Also, the “Round 2 (%)” value with APA (SK-RC-49/APA cells) [3] was determined as 50%. Moreover, in the assay with APA (SK-RC-49/APA cells) [3] (share of phage inserts, round 3), the “Round 3 (%)” value is reported as 100%. For the same sequence, the “displacement of phage binding by CPRECESIC peptide” value with APA (SK-RC-49/APA cells) [4] is recorded as “displaced”.
As for CLGQCASICVNDC, the “enrichment … compared to brain tissue” value in assay [2] is given as “Neither CYNLCIRECESICGADGACWTWCADGCSRSC (SEQ ID NO:125) nor CLGQCASICVNDC (SEQ ID NO:126) phage showed any tumor-homing preference”. The “Round 2 (%)” value with APA (SK-RC-49/APA cells) [3] is listed as 5%. In addition, the “displacement of phage binding by CPRECESIC peptide” value with APA (SK-RC-49/APA cells) [4] is “not affected”.
In the case of CKLWQEDGY, the “β5/GST Ratio” value in assay [1] came to 1.8.
For the sequence “GACVRLSACGA (disulfide 3-9 (inferred)) [unrelated cyclic control peptide, reference compound]”, the “inhibition of chemotaxis of HUVECs” value with HUVECs [5] was “no significant effect”. For the same sequence, the “HUVEC morphogenesis / capillary-like network” value in the assay on HUVECs [6] is listed as “did not affect HUVEC morphogenesis”. Besides, the “competition with CPKVCPRECESNC phage for binding to SK-RC-49/APA cells” value in the assay with APA (SK-RC-49/APA cells) [4] (soluble peptide in binding medium, not shown) is “no competitive activity”. In addition, the “inhibition of HUVEC proliferation” value in the assay on HUVECs [7] is “no significant effect”. Besides, the “effect on the number of growing vessels” value in assay [8] is “no effect”.
For CPKVCPRECESNC, the “enrichment … compared to brain tissue” value in assay [2] turned out to be 4 fold. Also, the “Round 2 (%)” value in the assay with APA (SK-RC-49/APA cells) [3] was 5%.
